Reference: PMC5551698 (The Journal of Cell Biology, 2017)

Target: His-CRMP-1 (human CRMP-1) (human, UniProt Q14194 1-572)
Experiment: pull-down

His-CRMP-1 (human CRMP-1), sequence (Q14194 whole entry): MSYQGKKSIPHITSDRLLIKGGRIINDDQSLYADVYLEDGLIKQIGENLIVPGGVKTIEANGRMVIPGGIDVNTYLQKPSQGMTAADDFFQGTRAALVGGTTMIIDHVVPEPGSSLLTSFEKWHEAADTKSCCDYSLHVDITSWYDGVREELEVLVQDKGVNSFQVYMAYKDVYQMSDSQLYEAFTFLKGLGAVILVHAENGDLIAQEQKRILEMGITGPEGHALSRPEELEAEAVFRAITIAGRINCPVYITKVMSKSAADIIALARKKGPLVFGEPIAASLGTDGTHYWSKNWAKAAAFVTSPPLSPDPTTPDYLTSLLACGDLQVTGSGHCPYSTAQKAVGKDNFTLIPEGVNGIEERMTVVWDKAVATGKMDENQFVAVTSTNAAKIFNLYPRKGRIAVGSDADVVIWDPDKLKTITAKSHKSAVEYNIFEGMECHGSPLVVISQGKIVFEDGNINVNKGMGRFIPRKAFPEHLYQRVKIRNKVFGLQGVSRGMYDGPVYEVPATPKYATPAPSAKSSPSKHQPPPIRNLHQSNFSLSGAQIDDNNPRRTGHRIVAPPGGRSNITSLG

B1: MBP-EVL (human EVL, full length) (natural protein, UniProt Q9UI08 1-416, looked up)
chain: MSEQSICQARASVMVYDDTSKKWVPIKPGQQGFSRINIYHNTASNTFRVVGVKLQDQQVVINYSIVKGLKYNQATPTFHQWRDARQVYGLNFASKEEATTFSNAMLFALNIMNSQEGGPSSQRQVQNGPSPDEMDIQRRQVMEQHQQQRQESLERRTSATGPILPPGHPSSAASAPVSCSGPPPPPPPPVPPPPTGATPPPPPPLPAGGAQGSSHDESSMSGLAAAIAGAKLRRVQRPEDASGGSSPSGTSKSDANRASSGGGGGGLMEEMNKLLAKRRKAASQSDKPAEKKEDESQMEDPSTSPSPGTRAASQPPNSSEAGRKPWERSNSVEKPVSSILSRTPSVAKSPEAKSPLQSQPHSRMKPAGSVNDMALDAFDLDRMKQEILEEVVRELHKVKEEIIDAIRQELSGISTT
  Kd: 2 µM
